Measured values published in publication doi:10.1101/2024.05.08.592267, “Origins and diversity of pan-isotype human bone marrow plasma cells” (bioRxiv, 2024).

Biological target: T1, biotinylated natural Ara h 2 (Arachis hypogaea (peanut), natural …, UniProt Q6PSU2, biotin (position not given))
T1 construct: Ara h 2, peanut allergen, 'natural' (not recombinant) protein; Natural Ara h 2 from peanut may be a mixture of isoforms; also called Biotin Natural Ara h 2; source: bought: InBio (biotinylated natural Ara h 2)
Assay: BLI; in-tandem epitope binning; biotinylated natural Ara h 2 loaded on streptavidin sensors; primary mAbs 10 ug/mL, secondary mAbs 5 ug/mL in kinetics buffer (Dulbecco's PBS, 1% BSA, 0.02% Tween-20); Octet R2
Details: both partners purified

T1 sequence (Q6PSU2 whole entry, looked up, canonical isoform): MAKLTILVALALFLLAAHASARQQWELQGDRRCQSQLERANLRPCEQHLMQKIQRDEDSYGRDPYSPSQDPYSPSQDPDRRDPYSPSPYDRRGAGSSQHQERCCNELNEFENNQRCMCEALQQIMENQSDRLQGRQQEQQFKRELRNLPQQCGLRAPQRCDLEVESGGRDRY

B1: 13T5 (monoclonal Ara h 2 specific antibody, Epitope 2) (antibody, V domains shown)
VH: QVQLQESGPGLVKPSETLSLTCTVSGGSMSSYYWGWIRQPAGRGLEWIGRIFTTGSTIYNASLNSRVSMSVDTSKNQFSLKLTSVTAADTALYFCVRDRRGRSHDSNWYWYFDLWGRGTLVTVSS
VL: DIVMTQSPSSLSASVGDRVIITCRTSQTLSRNLNWYQQKPGEAPKLLIYGASTLQSGVPSRFTGSGSGTDFTLIISSLQPEDFATYYCQQSDNTPRTFGQGTKVEIK
Q: Does B1 bind?
A: binds
